Reference: patent publication US20210244806A1, “Recombinant Protease Inhibitor-Containing Compositions, Methods for Producing Same and Uses Thereof” (ORAMED LTD., priority 2018, published 2021)

Assays:
trypsin = molecular target: T1, trypsin (Bos taurus, UniProt P00760); test: Trypsin Inhibition Assay; assay type: biochemical
T1 sequence (P00760 24-246): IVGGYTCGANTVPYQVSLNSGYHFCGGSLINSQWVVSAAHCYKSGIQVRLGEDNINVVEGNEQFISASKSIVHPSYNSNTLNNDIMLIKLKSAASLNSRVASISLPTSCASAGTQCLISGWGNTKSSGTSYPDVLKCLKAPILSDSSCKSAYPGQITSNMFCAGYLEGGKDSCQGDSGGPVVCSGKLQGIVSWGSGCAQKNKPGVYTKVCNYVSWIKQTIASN
Experimental: FIG. 5. Trypsin Inhibition Assay.
Unless indicated otherwise, anti-trypsin activity referred to herein is measured using trypsin having an activity of 10,000 BAEE units per mg. of trypsin, and is expressed in mg. of trypsin inhibited per mg. of protein being tested. BAEE refers to Na-Benzoyl-L-Arginine Ethyl Ester Solution (see the directions for Sigma-Aldrich Product No. B4500). For example, in a typical assay, one unit corresponds to the amount of inhibitor that reduces the trypsin activity by one benzoyl-L-arginine ethyl ester unit (BAEE-U). One BAEE-U is the amount of enzyme that increases the absorbance at 253 nm by 0.001 per minute at pH 7.6 and 25° C. See, for example, K. Ozawa, M. Laskowski, 1966, J. Biol. Chem. 241:3955; and Y. Birk, 1976, Meth. Enzymol. 45:700.
(§1) Protease inhibitor enzymatic activity was verified for the recombinant product, and demonstrable inhibition of chymotrypsin activity was achieved (FIG. 4) as well as inhibition of trypsin activity (FIG. 5).

chymotrypsin = chymotrypsin (Bos taurus, UniProt P00766); test: Chymotrypsin Inhibition Assay; assay type: biochemical
Experimental: FIG. 4. Chymotrypsin Inhibition Assay.
Unless indicated otherwise, anti-chymotrypsin activity referred to herein is measured using chymotrypsin having an activity of 40 BTEE units per mg. of chymotrypsin, and is expressed in mg. of chymotrypsin inhibited per mg. of protein being tested. BTEE refers to N-Benzoyl-L-Tyrosine Ethyl Ester (see the directions for Sigma-Aldrich Product No. B6125).
as §1

B1: rBBI: recombinant Bowman-Birk type proteinase inhibitor, codon-optimized (SEQ ID NO: 1), secreted from Pichia pastoris GS115, clone B17 (protein, listed as Pichia pastoris)
chain: DDESSKPCCDQCACTKSNPPQCRCSDMRLNSCHSACKSCICALSYPAQCFCVDITDFCYEPCKPSEDDKEN
trypsin; FIG. 5, result in words
  inhibition of trypsin activity compared to purified SBTI purified from soya: far greater inhibition of enzymatic activity
trypsin; FIG. 5, trypsin of 10,000 BAEE units per mg
  trypsin inhibited by 1 mg inhibitor: 1.7 mg trypsin inhibited by 1 mg inhibitor
chymotrypsin; FIG. 4, result in words
  inhibition of chymotrypsin activity compared to purified SBTI purified from soya: far greater inhibition of enzymatic activity
chymotrypsin; FIG. 4, chymotrypsin of 40 BTEE units per mg
  chymotrypsin inhibited by 1 mg inhibitor: 2.3 mg chymotrypsin inhibited by 1 mg inhibitor
